These results are taken from PMC5898216 (Nature communications, 2015).

Sequences and labels used below:
B2: PriL, primase large noncatalytic subunit, recombinant (natural protein, S. solfataricus, UniProt Q9UWW1 1-307, looked up)
chain: MALDVKKYPFIKSLDDELKKYGGGITLTDLLLNSTTLIDQAKDRIQKTKSGDELPHYVSYNEPVLVFYTTLLSLAILNDVKLIRRYAYAEAKQFRSLLHTENEENLLEISKLLDLKINRCDPIKFYLEKKRRIIQKEFCVHFIDYLKYTKDLKEDWKLSGQILHKGYVYLDKNQLIGLIAESIKSKIVEMIRPLNLKEIPEKLKSLIERRGIIPPCIENILAKEKLNEEEIRTLITFYIDIGKGLSGIVSIMKKYNVSNVEDLYRKYRGDKGTRYIVYSCAKMKQLGLCVSSCNVKNPLQLYFLSNE

For test [1], the target named is T1, PriSL heterodimer (PriS and PriL), recombinant (S. solfataricus, UniProt Q97Z83 1-330; Q9UWW1 1-307).
T1 sequence (looked up) 1: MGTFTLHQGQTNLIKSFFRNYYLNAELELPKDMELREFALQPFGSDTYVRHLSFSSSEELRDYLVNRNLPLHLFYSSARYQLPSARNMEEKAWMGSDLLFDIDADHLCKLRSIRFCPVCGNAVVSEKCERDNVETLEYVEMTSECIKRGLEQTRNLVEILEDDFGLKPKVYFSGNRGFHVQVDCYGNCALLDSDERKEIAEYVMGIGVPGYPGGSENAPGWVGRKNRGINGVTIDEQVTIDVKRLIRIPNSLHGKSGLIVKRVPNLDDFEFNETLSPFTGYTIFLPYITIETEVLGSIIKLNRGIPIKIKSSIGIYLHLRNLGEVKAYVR
T1 sequence (looked up) 2: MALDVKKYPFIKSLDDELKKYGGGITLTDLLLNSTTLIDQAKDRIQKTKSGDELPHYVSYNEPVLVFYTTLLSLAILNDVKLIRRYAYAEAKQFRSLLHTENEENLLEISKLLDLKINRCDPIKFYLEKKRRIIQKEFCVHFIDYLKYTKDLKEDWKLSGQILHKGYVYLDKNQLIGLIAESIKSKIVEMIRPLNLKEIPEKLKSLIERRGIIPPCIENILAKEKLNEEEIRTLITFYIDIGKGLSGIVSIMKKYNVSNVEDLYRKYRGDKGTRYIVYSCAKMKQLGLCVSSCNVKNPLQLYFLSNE
The test can be described thus: SEC.

The target in test [2] is B2. In words: ITC.
Test [3] addresses T2, PriS, primase catalytic subunit, recombinant (S. solfataricus, UniProt Q97Z83 1-330).
T2 sequence (looked up): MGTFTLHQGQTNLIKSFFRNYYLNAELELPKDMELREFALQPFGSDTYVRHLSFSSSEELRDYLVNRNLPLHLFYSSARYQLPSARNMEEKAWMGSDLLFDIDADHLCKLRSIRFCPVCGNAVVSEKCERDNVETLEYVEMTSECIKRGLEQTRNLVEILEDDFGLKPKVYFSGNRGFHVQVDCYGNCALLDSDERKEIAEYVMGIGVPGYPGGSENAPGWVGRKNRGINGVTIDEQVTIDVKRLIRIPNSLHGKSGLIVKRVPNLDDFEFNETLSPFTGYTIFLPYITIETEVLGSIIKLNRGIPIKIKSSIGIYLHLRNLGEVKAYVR
In words: SEC.

B1: PriX (product of Sso0502), recombinant full-length protein (natural protein, S. solfataricus, UniProt Q97ZS7 1-154, looked up)
chain: MSQEKKAKKIILHYPDDTPAGYIEYAEGSSSIYDNEGNFLFKVEGKFPPQPKKSSDYSWIEKVLEMGLQDSRKRFILYVASRYLVNVKGVNEDEALQTLKEFYYKLQSGKVYESWLKSVINGVKKKGLLPWSLKRIEERDKEMYNEIIRVLKNS
As to B1, in test [1], the binding result is given as “binds”. In addition, the “stoichiometry N” value in test [2] is 1.

On to B2, for which, in test [3], the binding result is listed as “binds”.
